Legend:
[1] = Screening of lysates for retained lysine decarboxylase activity after heat treatment at 65° C.; assay type: biochemical, Escherichia coli; settings: lysate incubated at 65° C. for 2 hours, then reacted at 37° C. for 40 minutes
Experimental: A colony of each transformant in which the mutated lysine decarboxylase had been introduced was picked up, inoculated to 1 mL of the LB medium containing 100 μg/mL of ampicillin, and cultured at 30° C. for 24 hours. 18 μL of 100 mM 2-(N-morpholino) ethanesulfonic acid (MES)-NaOH buffer (pH6.0) and 2.7 μL of FastBreak cell lysis reagent (Promega) were added to 10 μL of this cultured medium, which was then incubated at 37° C. for 30 minutes to lyse the microbial cells. Then, this lysate solution was heated up to 65° C. and incubated for 2 hours. After this heat treatment, 190 μL of a reaction solution (pH 5.5) containing 10 g/L of lysine hydrochloride, 21.3 g/L (100 mM) of MES, 26.5 mg/L of Pyridoxal-5′-phosphate (PLP) and 20 mg/L of Bromocresol purple was added and reacted at 37° C. for 40 minutes. […] More abundant formation of 1,5-PD and retention of activity as compared to bacteria expressing the wild-type enzyme after treating with heat under the above conditions were used as an indicator. Three candidate strains expressing CadA having improved thermal stability were obtained using this indicator. These transformants of E. coli JM109 strain were designated as CadA231, CadA232 and CadA233, respectively.

[2] = Remaining lysine decarboxylase activity of cell free extract after incubation at 65° C.; assay type: biochemical, Escherichia coli
Experimental: The activity of the lysine decarboxylase was measured according to the method described in JP patent application laid-open Publication No. 2008-193899. 0.1 mL of a microbial cell suspension or a treated product thereof was added to 1 mL of a reaction solution containing 100 mM MES-NaOH buffer (pH 6.0), 10 g/L (55 mM) of L-lysine hydrochloride and 26.5 mg/L (0.1 mM) of PLP, and then the reaction mixture was incubated at 37° C. for 5 minutes. 0.1 mL of the reaction solution was collected and added to 1 mL of 1% (v/v) phosphoric acid to stop the reaction. Lysine and 1,5-PD were quantified with HPLC by a post column OPA method (S. R. Vale and M. B. Gloria, Journal Of AOAC International (1997) vol. 80, p. 1006-1012) or a method of quantifying remaining L-lysine using a biosensor BF-5 (Oji Scientific Instruments Co., Ltd.). One unit was defined as an activity that formed 1 μmol of 1,5-PD in one minute under this condition.
Each transformant was inoculated to 50 mL of L medium in a 500 mL Sakaguchi flask containing 100 μg/mL of ampicillin and cultured with shaking at 30° C. for 16 hours. Microbial cells were collected from the cultured medium by centrifugation, washed once with saline, subsequently suspended in 5 mL of 100 mM potassium phosphate buffer (pH 7.0), and disrupted by sonication at 4° C. for 20 minutes. An insoluble fraction was removed by centrifuging the lysate solution at 8,000 rpm for 10 minutes to prepare a cell free extract.
The resulting cell free extract was diluted 20 fold with 100 mM MES-NaOH buffer (pH 6.0). This crude enzyme solution was incubated at 65° C., and its remaining activity after 3 and 5 hours was measured by the method described in Example 1. As a result, the activity in the crude enzyme solution from the strain expressing the mutated enzyme before incubation was almost the same as that from the strain expressing the wild-type enzyme (Table 3).

[3] = cell free extract diluted 20 fold, before heating

B1: pCadA220: wild-type lysine decarboxylase (CadA) derived from Escherichia coli W3110, expressed from plasmid pCadA220 (protein, UniProt P0A9H3 1-715, looked up)
Inducible lysine decarboxylase: MNVIAILNHMGVYFKEEPIRELHRALERLNFQIVYPNDRDDLLKLIENNARLCGVIFDWDKYNLELCEEISKMNENLPLYAFANTYSTLDVSLNDLRLQISFFEYALGAAEDIANKIKQTTDEYINTILPPLTKALFKYVREGKYTFCTPGHMGGTAFQKSPVGSLFYDFFGPNTMKSDISISVSELGSLLDHSGPHKEAEQYIARVFNADRSYMVTNGTSTANKIVGMYSAPAGSTILIDRNCHKSLTHLMMMSDVTPIYFRPTRNAYGILGGIPQSEFQHATIAKRVKETPNATWPVHAVITNSTYDGLLYNTDFIKKTLDVKSIHFDSAWVPYTNFSPIYEGKCGMSGGRVEGKVIYETQSTHKLLAAFSQASMIHVKGDVNEETFNEAYMMHTTTSPHYGIVASTETAAAMMKGNAGKRLINGSIERAIKFRKEIKRLRTESDGWFFDVWQPDHIDTTECWPLRSDSTWHGFKNIDNEHMYLDPIKVTLLTPGMEKDGTMSDFGIPASIVAKYLDEHGIVVEKTGPYNLLFLFSIGIDKTKALSLLRALTDFKRAFDLNLRVKNMLPSLYREDPEFYENMRIQELAQNIHKLIVHHNLPDLMYRAFEVLPTMVMTPYAAFQKELHGMTEEVYLDEMVGRINANMILPYPPGVPLVMPGEMITEESRPVLEFLQMLCEIGAHYPGFETDIHGAYRQADGRYTVKVLKEESKK
- activity after heat treatment of lysate [1]: inactivated
- Activity after incubation at 65° C. for 3 h ([2]; 65° C., 3 h): 413 Units/mL
- Remaining activity after incubation at 65° C. for 3 h ([2]; 65° C., 3 h, relative to before heating): 59.2%
- Activity after incubation at 65° C. for 5 h ([2]; 65° C., 5 h): 360 Units/mL
- Remaining activity after incubation at 65° C. for 5 h ([2]; 65° C., 5 h, relative to before heating): 51.6%
- Remaining activity after incubation at 65° C. for 5 h ([2]; 65° C., 5 h, relative to before heating, listed as wild-type enzyme): reduced by half
- Activity before heating [2, 3]: 697 Units/mL
- Activity before heating, remaining activity [2, 3]: 100%
